Results from PMC11732086 (2024).

How the values were obtained:
MBP-OsTORKD [1] = target: T1, MBP-OsTORKD (rice, UniProt Q0DJS1 1896-2465); assay: ITC
T1 chain: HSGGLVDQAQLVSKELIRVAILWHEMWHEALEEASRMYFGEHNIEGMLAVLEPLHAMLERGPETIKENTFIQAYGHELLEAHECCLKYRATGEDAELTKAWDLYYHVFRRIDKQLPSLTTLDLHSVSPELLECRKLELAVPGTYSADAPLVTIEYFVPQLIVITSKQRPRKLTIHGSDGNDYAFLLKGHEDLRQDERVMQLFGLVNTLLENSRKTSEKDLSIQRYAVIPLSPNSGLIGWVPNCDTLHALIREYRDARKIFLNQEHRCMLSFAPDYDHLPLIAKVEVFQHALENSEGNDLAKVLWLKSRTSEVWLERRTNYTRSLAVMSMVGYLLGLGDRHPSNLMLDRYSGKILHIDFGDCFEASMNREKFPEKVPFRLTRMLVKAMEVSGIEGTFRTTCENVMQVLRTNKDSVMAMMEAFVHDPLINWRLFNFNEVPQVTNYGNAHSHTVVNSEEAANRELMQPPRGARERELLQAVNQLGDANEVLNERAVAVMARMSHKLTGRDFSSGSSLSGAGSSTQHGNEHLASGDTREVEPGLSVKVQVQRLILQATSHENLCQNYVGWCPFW

MBP-OsTORKD [2] = target: T1, MBP-OsTORKD; assay: ITC; His-OsFKBP12 in the syringe (10 mM) titrated into MBP-OsNIN8, MBP-OsNIN8m or MBP-OsTORKD in the cell (0.1 mM); 25°C; 20 injections of 2.5 μL, interval 200 s; proteins dialysed in 50 mM potassium phosphate pH 6.4

B1: His-OsFKBP12 (natural protein)
chain: MGFEKTILKAGTGPKPVKGQKVTVHCTGFGKDNDLAKKFWSTKDAGQEPFSFNIGQGSVIKGWDEGVMTMQVGEVARIQCTPDYAYGASGFPAWGIRPNSVLVFEIEVLSAQ
Kd (MBP-OsTORKD [1]): 81.8 µM
stoichiometry N (OsFKBP12 per OsTORKD) (MBP-OsTORKD [2]): 6
